What was measured:
Assay in all cases: cell-based or functional assay
[1] = target: S protein of SARS-CoV-2 Omicron BA.4.6 (SARS-CoV-2 BA.4.6)
[2] = target: S protein of SARS-CoV-2 Omicron BF.7 (SARS-CoV-2 BF.7)
[3] = target: S protein of SARS-CoV-2 Omicron BA.2.75 (SARS-CoV-2 BA.2.75)
[4] = target: S protein of SARS-CoV-2 Omicron BA.2.12.1 (SARS-CoV-2 BA.2.12.1)
[5] = target: S protein of SARS-CoV-2 Omicron BA.1 (SARS-CoV-2 BA.1)
[6] = target: S protein of SARS-CoV-2 Omicron BQ.1 (SARS-CoV-2 BQ.1)
[7] = target: S protein of SARS-CoV-2 Omicron XBB (SARS-CoV-2 XBB)
[8] = target: S protein of SARS-CoV-2 Alpha (B.1.1.7) (SARS-CoV-2 Alpha (B.1.1.7))
[9] = target: S protein of SARS-CoV-2 Gamma (P.1) (SARS-CoV-2 Gamma (P.1))
[10] = target: S protein of SARS-CoV-2 Omicron BA.3 (SARS-CoV-2 BA.3)
[11] = target: S protein of SARS-CoV-2 Omicron BA.2.2 (SARS-CoV-2 BA.2.2)
[12] = target: S protein of SARS-CoV-2 Omicron BA.2.9 (SARS-CoV-2 BA.2.9)
[13] = target: S protein of SARS-CoV-2 Lambda (SARS-CoV-2 Lambda)
[14] = target: S protein of SARS-CoV-2 Delta (B.1.617.2) (SARS-CoV-2 Delta (B.1.617.2))
[15] = target: S protein of SARS-CoV-2 Beta (B.1.351) (SARS-CoV-2 Beta (B.1.351))
[16] = target: S protein of SARS-CoV-2 Omicron BA.5 (SARS-CoV-2 BA.5)
[17] = target: S protein of SARS-CoV-2 Omicron BA.2 (SARS-CoV-2 BA.2)

Substance: ACE2 protein alone (ACE2 peptidase domain alone) (from UniProt Q9BYF1 18-615) (receptor)
- EC50, inactivation of pseudovirus (Caco-2, luciferase) [1]: 1160 nM
- IC50, inhibition of pseudovirus infection (Caco-2, luciferase) [1]: 65.9 nM
- EC50, inactivation of pseudovirus (Caco-2, luciferase) [2]: 192 nM
- IC50, inhibition of pseudovirus infection (Caco-2, luciferase) [2]: 101 nM
- EC50, inactivation of pseudovirus (Caco-2, luciferase) [3]: 677 nM
- IC50, inhibition of pseudovirus infection (Caco-2, luciferase) [3]: 26.5 nM
- EC50, inactivation of pseudovirus (Caco-2, luciferase) [4]: 76.1 nM
- IC50, inhibition of pseudovirus infection (Caco-2, luciferase) [4]: 10.6 nM
- EC50, inactivation of pseudovirus (Caco-2, luciferase) [5]: 82.2 nM
- IC50, inhibition of pseudovirus infection (Caco-2, luciferase) [5]: 18.7 nM
- EC50, inactivation of pseudovirus (Caco-2, luciferase) [6]: 149 nM
- IC50, inhibition of pseudovirus infection (Caco-2, luciferase) [6]: 21.8 nM
- EC50, inactivation of pseudovirus (Caco-2, luciferase) [7]: 212 nM
- IC50, inhibition of pseudovirus infection (Caco-2, luciferase) [7]: 12.7 nM
- EC50, inactivation of pseudovirus (Caco-2, luciferase) [8]: 243 nM
- IC50, inhibition of pseudovirus infection (Caco-2, luciferase) [8]: 6.2 nM
- EC50, inactivation of pseudovirus (Caco-2, luciferase) [9]: 88.5 nM
- IC50, inhibition of pseudovirus infection (Caco-2, luciferase) [9]: 15.1 nM
- EC50, inactivation of pseudovirus (Caco-2, luciferase) [10]: 52.1 nM
- IC50, inhibition of pseudovirus infection (Caco-2, luciferase) [10]: 6.51 nM
- EC50, inactivation of pseudovirus (Caco-2, luciferase) [11]: 476 nM
- IC50, inhibition of pseudovirus infection (Caco-2, luciferase) [11]: 11.9 nM
- EC50, inactivation of pseudovirus (Caco-2, luciferase) [12]: 407 nM
- IC50, inhibition of pseudovirus infection (Caco-2, luciferase) [12]: 7.63 nM
- EC50, inactivation of pseudovirus (Caco-2, luciferase) [13]: 116 nM
- IC50, inhibition of pseudovirus infection (Caco-2, luciferase) [13]: 12.8 nM
- EC50, inactivation of pseudovirus (Caco-2, luciferase) [14]: 605 nM
- IC50, inhibition of pseudovirus infection (Caco-2, luciferase) [14]: 4.85 nM
- EC50, inactivation of pseudovirus (Caco-2, luciferase) [15]: 123 nM
- IC50, inhibition of pseudovirus infection (Caco-2, luciferase) [15]: 16.1 nM
- EC50, inactivation of pseudovirus (Caco-2, luciferase) [16]: 336 nM
- IC50, inhibition of pseudovirus infection (Caco-2, luciferase) [16]: 15.3 nM
- EC50, inactivation of pseudovirus (Caco-2, luciferase) [17]: 329 nM
- IC50, inhibition of pseudovirus infection (Caco-2, luciferase) [17]: 12.6 nM

Substance: AL6E protein (ACE2-linker-EK1 fusion protein with (GGGGS)6 linker)
- IC50, inhibition of pseudovirus infection (Caco-2, luciferase) [1]: 1.96 nM
- IC50, inhibition of pseudovirus infection (Caco-2, luciferase) [2]: 1.01 nM
- IC50, inhibition of pseudovirus infection (Caco-2, luciferase) [3]: 1.4 nM
- IC50, inhibition of pseudovirus infection (Caco-2, luciferase) [4]: 0.17 nM
- IC50, inhibition of pseudovirus infection (Caco-2, luciferase) [5]: 0.11 nM
- IC50, inhibition of pseudovirus infection (Caco-2, luciferase) [6]: 0.86 nM
- IC50, inhibition of pseudovirus infection (Caco-2, luciferase) [7]: 0.23 nM
- IC50, inhibition of pseudovirus infection (Caco-2, luciferase) [8]: 0.25 nM
- IC50, inhibition of pseudovirus infection (Caco-2, luciferase) [9]: 0.28 nM
- IC50, inhibition of pseudovirus infection (Caco-2, luciferase) [10]: 0.27 nM
- IC50, inhibition of pseudovirus infection (Caco-2, luciferase) [11]: 0.24 nM
- IC50, inhibition of pseudovirus infection (Caco-2, luciferase) [12]: 0.09 nM
- IC50, inhibition of pseudovirus infection (Caco-2, luciferase) [13]: 0.07 nM
- IC50, inhibition of pseudovirus infection (Caco-2, luciferase) [14]: 0.31 nM
- IC50, inhibition of pseudovirus infection (Caco-2, luciferase) [15]: 0.25 nM
- IC50, inhibition of pseudovirus infection (Caco-2, luciferase) [16]: 0.13 nM
- IC50, inhibition of pseudovirus infection (Caco-2, luciferase) [17]: 0.21 nM
